Experimental data as given in the supplement of paper PMC7125110.
± gives the standard error. For part of these data: Variants at the floor of the assay were thinned out.

B1: glmS ribozyme (parent)
chain: AUAAAAGCGCCAGAACUACAGAAAUGUAGUUGACGAGGAGGAGGUUUAUCGAAUUUUCGGCGGAUGCCUCCAAA

Tests used:
Details in all cases: with glucosamine-6-phosphate
glucosamine-6-phosphate [1] = variants of: B1; assay: kcat; higher = faster cleavage; RNA array
Outline: (§1)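 Barcoded glmS ribozyme variants on sequenced MiSeq chips were transcribed in situ by E. coli RNA polymerase and tracked through a hybridised Cy3 probe at 37 °C. Glucosamine-6-phosphate (40 μM to 10 mM) in HEPES/KCl/Mg(OAc)2 buffer was flowed in, and tiles were imaged over ~14 h. Signals were normalised to baseline and to non-cleaving reference variants; per-tile medians were fit to one- or two-exponential decays to give kobs. kcat and KM came from weighted Michaelis–Menten fits across concentrations.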

glucosamine-6-phosphate [2] = variants of: B1; assay: KM; higher = weaker cofactor use; RNA array
Outline: as §1

glucosamine-6-phosphate [3] = variants of: B1; assay: self-cleavage kobs at 40 uM GlcN6P; higher = faster cleavage; RNA array
Outline: as §1

glucosamine-6-phosphate [4] = variants of: B1; assay: self-cleavage kobs at 160 uM GlcN6P; higher = faster cleavage; RNA array
Outline: as §1

glucosamine-6-phosphate [5] = variants of: B1; assay: self-cleavage kobs at 640 uM GlcN6P; higher = faster cleavage; RNA array
Outline: as §1

glucosamine-6-phosphate [6] = variants of: B1; assay: self-cleavage kobs at 2500 uM GlcN6P; higher = faster cleavage; RNA array
Outline: as §1

glucosamine-6-phosphate [7] = variants of: B1; assay: self-cleavage kobs at 10000 uM GlcN6P; higher = faster cleavage; RNA array
Outline: as §1

Variant | kcat (glucosamine-6-phosphate [1]) | KM (glucosamine-6-phosphate [2]) | self-cleavage kobs at 40 uM GlcN6P (glucosamine-6-phosphate [3]) | self-cleavage kobs at 160 uM GlcN6P (glucosamine-6-phosphate [4]) | self-cleavage kobs at 640 uM GlcN6P (glucosamine-6-phosphate [5]) | self-cleavage kobs at 2500 uM GlcN6P (glucosamine-6-phosphate [6]) | self-cleavage kobs at 10000 uM GlcN6P (glucosamine-6-phosphate [7])
U31C G32A | 0.0022 ± 0.00058 s⁻¹ | 6.58 ± 2.4 mM | 4.27e-05 ± 1.5e-05 s⁻¹ | 6.8e-05 ± 1.3e-05 s⁻¹ | 0.000179 ± 2.1e-05 s⁻¹ | 0.000604 ± 7.5e-05 s⁻¹ | 0.00134 ± 0.00014 s⁻¹
U31C G32U | 0.000799 ± 8e-05 s⁻¹ | 4.03 ± 0.6 mM |  | 3.53e-05 ± 8.1e-06 s⁻¹ | 0.000112 ± 9.6e-06 s⁻¹ | 0.000281 ± 2.9e-05 s⁻¹ | 0.000594 ± 5.8e-05 s⁻¹
G32U A42G | 0.00137 ± 0.00021 s⁻¹ | 3.79 ± 0.81 mM |  | 4.61e-05 ± 1.7e-05 s⁻¹ | 0.000218 ± 4e-05 s⁻¹ | 0.000528 ± 0.00013 s⁻¹ | 0.000988 ± 0.00023 s⁻¹
C34A G38U | < 1e-05 s⁻¹ |  |  |  | < 1e-05 s⁻¹ |  | 
A33U | 0.00014 ± 3.2e-06 s⁻¹ | 2.77 ± 0.16 mM |  |  | 2.78e-05 ± 1.1e-06 s⁻¹ | 6.53e-05 ± 1.2e-06 s⁻¹ | 0.000111 ± 1.4e-06 s⁻¹
A33C | 0.000505 ± 2.5e-05 s⁻¹ | 2.8 ± 0.24 mM | 1.4e-05 ± 2.6e-06 s⁻¹ | 2.95e-05 ± 1.7e-06 s⁻¹ | 9.27e-05 ± 1.9e-06 s⁻¹ | 0.000541 ± 0.00018 s⁻¹ | 0.000395 ± 6.8e-06 s⁻¹
A33U C71A | 4.74e-05 ± 6.5e-07 s⁻¹ | 0.919 ± 0.065 mM | < 1e-05 s⁻¹ |  |  | 3.52e-05 ± 8.5e-06 s⁻¹ | 4.32e-05 ± 6.2e-06 s⁻¹
A36U G38A | < 1e-05 s⁻¹ |  |  |  |  |  | 
A36U G38U | < 1e-05 s⁻¹ |  |  |  |  |  | < 1e-05 s⁻¹
A36U G66C | < 1e-05 s⁻¹ |  | < 1e-05 s⁻¹ | < 1e-05 s⁻¹ |  |  | 
C34G U56G C70U | 3.47e-05 ± 8.1e-06 s⁻¹ |  |  |  | 3.21e-05 ± 1.5e-05 s⁻¹ | 4.52e-05 ± 2.2e-05 s⁻¹ | 
U31C G37U | < 1e-05 s⁻¹ |  | < 1e-05 s⁻¹ |  | < 1e-05 s⁻¹ |  | 
G37A A52G | 0.000162 ± 8.6e-06 s⁻¹ | 3.42 ± 0.44 mM |  |  |  | 6.77e-05 ± 1.2e-05 s⁻¹ | 0.000121 ± 1.5e-05 s⁻¹
G32A G44C C67U | 0.000144 ± 5.9e-05 s⁻¹ |  | < 1e-05 s⁻¹ |  |  | 0.000148 ± 4.6e-05 s⁻¹ | 0.00011 ± 2.3e-05 s⁻¹
G32A G38U G59A U65A C70G | 1.63e-05 ± 2.9e-06 s⁻¹ |  |  |  |  |  | 
G32A U65G | 0.000643 ± 0.00019 s⁻¹ | 7.62 ± 3.8 mM |  |  | 7.49e-05 ± 2.1e-05 s⁻¹ | 0.000139 ± 2.7e-05 s⁻¹ | 0.000374 ± 5e-05 s⁻¹
A33C U56A | 0.000161 ± 5.6e-05 s⁻¹ |  |  |  |  |  | 8.05e-05 ± 1.2e-05 s⁻¹
A33G C67U | 2.01e-05 ± 2.6e-06 s⁻¹ | 1.35 ± 0.42 mM |  |  |  |  | 
A33G C67A | < 1e-05 s⁻¹ |  | < 1e-05 s⁻¹ |  |  |  | < 1e-05 s⁻¹
A33G C67G | 1.67e-05 ± 4.8e-06 s⁻¹ |  |  |  |  |  | 

Variant | kcat (glucosamine-6-phosphate [1]) | KM (glucosamine-6-phosphate [2]) | self-cleavage kobs at 40 uM GlcN6P (glucosamine-6-phosphate [3]) | self-cleavage kobs at 160 uM GlcN6P (glucosamine-6-phosphate [4]) | self-cleavage kobs at 640 uM GlcN6P (glucosamine-6-phosphate [5]) | self-cleavage kobs at 2500 uM GlcN6P (glucosamine-6-phosphate [6]) | self-cleavage kobs at 10000 uM GlcN6P (glucosamine-6-phosphate [7])
G32A U49A U54G G59A C67U | 1.76e-05 ± 5.6e-06 s⁻¹ |  |  |  |  |  | 
A33C A39U | 0.000401 ± 2.3e-05 s⁻¹ | 4 ± 0.47 mM |  |  | 5.65e-05 ± 7.9e-06 s⁻¹ | 0.000146 ± 1.9e-05 s⁻¹ | 0.000289 ± 1.9e-05 s⁻¹
A33C A39C | 3.87e-05 ± 3.3e-06 s⁻¹ |  |  |  |  | 3.92e-05 ± 8e-06 s⁻¹ | 3.54e-05 ± 7.3e-06 s⁻¹
A33C U47C | 4.24e-05 ± 1.3e-05 s⁻¹ |  |  |  |  | 5.42e-05 ± 1.3e-05 s⁻¹ | 3.37e-05 ± 1e-05 s⁻¹
A33C U47A | 0.000256 ± 2.1e-05 s⁻¹ | 2.95 ± 0.55 mM |  |  | 4.21e-05 ± 1.7e-05 s⁻¹ | 0.000136 ± 4.7e-05 s⁻¹ | 0.000195 ± 3.4e-05 s⁻¹
G32C A39U | 6.89e-05 ± 3.3e-06 s⁻¹ | 9.27 ± 0.88 mM |  |  |  |  | 3.58e-05 ± 6.1e-06 s⁻¹
U31C C71G | 0.000382 ± 8.8e-05 s⁻¹ | 1.97 ± 0.89 mM |  |  | 9.1e-05 ± 1.5e-05 s⁻¹ | 0.000213 ± 3.5e-05 s⁻¹ | 0.000321 ± 4.9e-05 s⁻¹
A33U U54A C68A | 2.8e-05 ± 3.4e-06 s⁻¹ |  |  |  |  |  | 
G32A C34U | < 1e-05 s⁻¹ |  |  |  | < 1e-05 s⁻¹ |  | 
C34G C67A | 1.49e-05 ± 6.7e-06 s⁻¹ |  |  | < 1e-05 s⁻¹ |  |  | 
A33U C61U | < 1e-05 s⁻¹ |  |  |  | < 1e-05 s⁻¹ |  | 
A33C U54A | 0.00129 ± 0.00021 s⁻¹ | 7.81 ± 1.7 mM |  | 4.1e-05 ± 1.7e-05 s⁻¹ | 9.44e-05 ± 1.2e-05 s⁻¹ | 0.000323 ± 6.1e-05 s⁻¹ | 0.000722 ± 0.0001 s⁻¹
A33C A48U | < 1e-05 s⁻¹ |  | < 1e-05 s⁻¹ | < 1e-05 s⁻¹ |  |  | 
G32A G40C A48U | < 1e-05 s⁻¹ |  | < 1e-05 s⁻¹ |  |  |  | 
U31C G59U | < 1e-05 s⁻¹ |  | < 1e-05 s⁻¹ |  | < 1e-05 s⁻¹ |  | 
U31C U47A | 0.00379 ± 0.00061 s⁻¹ | 1.8 ± 0.46 mM | 8.24e-05 ± 1.4e-05 s⁻¹ | 0.000354 ± 7.7e-05 s⁻¹ | 0.00107 ± 0.00022 s⁻¹ | 0.00178 ± 0.00031 s⁻¹ | 0.00367 ± 0.00049 s⁻¹
C34A G37U C68U | < 1e-05 s⁻¹ |  | < 1e-05 s⁻¹ |  |  |  | 
U31G A39U | 0.0136 ± 0.0028 s⁻¹ | 3.52 ± 0.93 mM | 0.000179 ± 1.6e-05 s⁻¹ | 0.000492 ± 7.3e-05 s⁻¹ | 0.00183 ± 0.00041 s⁻¹ | 0.00485 ± 0.00084 s⁻¹ | 0.0106 ± 0.0011 s⁻¹
G32A G60A | < 1e-05 s⁻¹ |  | < 1e-05 s⁻¹ | < 1e-05 s⁻¹ | < 1e-05 s⁻¹ |  | 
G32A G60C | < 1e-05 s⁻¹ | 0.183 ± 0.055 mM |  |  |  |  | < 1e-05 s⁻¹
